In experiment [1] the target is Gerbich human erythrocytes (exon 3 deletion of glycophorin C/D: shortened glycophorin C, absent glycophorin D). Nature of the experiment: region II on COS cells, erythrocyte-binding assay.
Experiment [2] deals with neuraminidase-treated normal human erythrocytes. Nature of the experiment: region II on COS cells, erythrocyte-binding assay.
In experiment [3] the target is normal human erythrocytes (untreated). Nature of the experiment: region II on COS cells, erythrocyte-binding assay.
Experiment [4] addresses trypsin-treated human erythrocytes. Nature of the experiment: region II on COS cells, erythrocyte-binding assay.
In experiment [5] the test system is binding of BAEBL to human erythrocytes. Nature of the experiment: Competitive inhibition assay. The settings on record: 1 μM, 10 μM, 100 μM, and 1000 μM; preincubated 1 hr at room temperature. On the procedure:
To determine the specificity of binding, we studied binding to neuraminidase-and trypsin-treated human erythrocytes and human erythrocytes with various genetically modified blood groups. […] To determine whether BAEBL was binding to the carbohydrates on the erythrocyte receptor, we performed competitive inhibition with Neu5Ac(α2-3) lactosialic and Neu5Ac(α2-6)lactosialic acid at 1 μM, 10 μM, 100 μM, and 1000 μM.
An inhibition assay was conducted in the presence of Neu5Ac(α2-3) lactosialic acid or Neu5Ac(α2-6) lactosialic acid (Sigma). Metabolically labeled parasite supernatant (50 μl) was preincubated with 1, 10, 100, or 1000 μM in 15 μl of the aforementioned carbohydrates for 1 hr at room temperature. Packed erythrocytes (50 μl) were added to the mixture. The erythrocyte binding assay was conducted as described above. Immunolocalization of BAEBL.

Experiment [6] deals with RBC (normal, trypsin- or neuraminidase-treated, Gerbich-negative). Nature of the experiment: Erythrocyte-binding assay with BAEBL region II variants expressed on the surface of COS cells. The format is cell-based, human.

This note sets out measurements from patent publication US20050239730A1, “Plasmodium falciparum erythrocyte binding protein baebl for use as a vaccine” (priority 2001, published 2005).

On to “BAEBL region II variant VSKK, expressed on the surface of COS cells (ligand)”, for which the figures for the percentage of binding to normal, untreated RBC in experiment [1] and in experiment [2] were 112% and 90%, respectively. For the same molecule, the COS cells with five or more attached RBC, total per coverslip (COS cells per coverslip) in experiment [3] was found to be 58.
In the case of “BAEBL region II variant ISKK, expressed on the surface of COS cells (ligand)”, the percentage of binding to normal, untreated RBC was 96% in experiment [1] and 92% in experiment [4]. The molecule also gave a COS cells with five or more attached RBC, total per coverslip (COS cells per coverslip) in experiment [3] of 59.
As to `CC(=O)NC1C(O)CC(OC2C(O)C(CO)OC(OC3C(CO)OC(O)C(O)C3O)C2O)(C(=O)O)OC1C(O)C(O)CO` (stereo not drawn) [Neu5Ac(α2-3) lactosialic acid], in experiment [5], the “Inhibition of the binding of BAEBL to human erythrocytes” value was “neither Neu5Ac(α2-3) nor Neu5Ac(α2-6) lactosialic acid inhibited the binding”.
Take “BAEBL region II variant INRE, expressed on the surface of COS cells (ligand)”: the percentage of binding to normal, untreated RBC in experiment [1] amounted to 100%; in experiment [2] it was 110%; in experiment [4], 114%. The molecule further returned a COS cells with five or more attached RBC, total per coverslip (COS cells per coverslip) in experiment [3] of 67.
Turning to `CC(=O)NC1C(O)CC(OCC2OC(OC3C(CO)OC(O)C(O)C3O)C(O)C(O)C2O)(C(=O)O)OC1C(O)C(O)CO` (stereo not drawn) [Neu5Ac(α2-6) lactosialic acid], the “Inhibition of the binding of BAEBL to human erythrocytes” value in experiment [5] is reported as “neither Neu5Ac(α2-3) nor Neu5Ac(α2-6) lactosialic acid inhibited the binding”.

B1: VSTK: BAEBL region II variant (aa 143-606) expressed in COS cells; V185, S239, T261, K285 (protein)
chain: TFIQKRTHLFACGIKRKSIKWICRENSEKITVCVPDRKIQLCVANFLNSRLETMEKFKEIFLISVNTEAKLLYNKNEGKDPSIFCNELRNSFSDFRSSFIGDDMDFGGNTDRVKGYINTKFSDYYKEKNVEKLNNIKKEWWEKNKANLWNHMIVNHKGNISKECAIIPAEEPQINLWIKEWNENFLMEKKRLFLNIKDKCVENKKYEACFGGCRLPCSSYTSFMKKSKTQMEVLTNLYKKKNSGVDKNNFLNDLFKKNNKNDLDDFFKNEKEYDDLCDCRYTATIIKSFLNGPAKNDVDIASQINVNDLRGFGCNYKSNNEKSWNCTGTFTNKFPGTCEPPRRQTLCLGRTYLLHRGHEEDYKEHLLGASIYEAQLLKYKYKEKDENALCSIIQNSYADLADIIKGSDIIKDYYGKKMEENLNKVNKDKKRNEESLKIFREKWWDENKENVWKVMSAVLKNKET
On to B1, for which the “Binding to Gerbich-negative RBC as percentage of binding to normal, untreated RBC” value in experiment [6] (Gerbich-negative RBC (exon 3 deletion of glycophorin C/D)) worked out at 0.9%. Besides, the “Binding to neuraminidase-treated normal RBC as percentage of binding to normal, untreated RBC” value in experiment [6] (neuraminidase-treated normal RBC) was 0%. Besides, the “Binding to normal RBC, untreated: COS cells with five or more attached RBC, total per coverslip” value in experiment [6] (normal untreated RBC, region II (aa 143-606) expressed in COS cells) was determined as 65. For the same molecule, in experiment [6] (trypsin-treated normal RBC), the “Binding to trypsin-treated normal RBC as percentage of binding to normal, untreated RBC” value was determined as 0%.
